According to paper PMC11341859:

Tests used:
[1] = target: LY1 ORF1 ΔC-term (1-609) (Betatorquevirus isolate LY1 (TTMV-LY1)); assay: cryo-EM structure; Expi293-derived ΔC-term virus-like particles, 0.4 mg/ml, Titan Krios 300 kV, 2.69 Å
[2] = target: LY1 ΔARM fragment (ORF1 with residues 2-45 deleted, C-terminus removed by proteolysis in insect cells) (Betatorquevirus isolate LY1 (TTMV-LY1)); assay: cryo-EM structure; Sf9-derived ΔARM fragment virus-like particles, 0.3 mg/ml on graphene oxide grid, Glacios 200 kV, I1 symmetry, 3.9 Å

| Substance | stoichiometry N [1] | stoichiometry N [2] |
| --- | --- | --- |
| LY1 ORF1 ΔC-term (1-609) (domain or fragment) | 60 |  |
| LY1 ΔARM fragment (ORF1 with residues 2-45 deleted, C-terminus removed by proteolysis in insect cells) (domain or fragment) |  | 60 |
